From patent US20140274782A1, “AFFINITY REAGENTS AND METHODS FOR DETECTION, PURIFICATION, AND PROTEOMIC ANALYSIS OF METHYLATED PROTEINS” (The Board of Trustees of the Leland Stanford Junior …, priority 2013, published 2014)
Blank lines part the entries; values can stand above or below the molecule they belong to.

Experiments:
3×MBT domain of L3MBTL1 = test: Triple SILAC pull-down, 3xMBT/3xMBTD355N ratio (cytoplasmic, nuclear and chromatin fractions of 293T cells); type: binding, human; conditions: for 3xMBT/D355N UNC Heavy: experiment with UNC0638 in heavy SILAC media; for 3xMBT/D355N UNC Light: experiment with UNC0638 in light SILAC media;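 as to all read-outs here: proteins quantified with MaxQuant, requiring at least two unique peptides and quantification in both label directions, normalized to the mean of proteins from a digested loading control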
G9a and GLP = biological target: T1, G9a and GLP (Homo sapiens, UniProt Q96KQ7+Q9H9B1); test: Triple SILAC pull-down after UNC0638 treatment of 293T cells, DMSO/UNC0638 ratio of protein captured by 3×MBT; type: cell-based; parameters: cells were treated for 24 hours with UNC0638 at 2.5 μM or DMSO vehicle control; endogenous in cells; host or cells: HEK 293T; conditions: for Relative to UNC0638 UNC Heavy: UNC0638 in heavy SILAC media; for Relative to UNC0638 UNC Light: UNC0638 in light SILAC media; for Relative to UNC0638 Average: average of UNC Light and UNC Heavy experiments; for Candidate G9a/GLP target: reduced association with 3xMBT after UNC0638 treatment;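 as to all read-outs here: mass spectrometry (Q-Exactive) SILAC quantitation, DMSO/UNC0638 ratio computed after subtracting 3×MBTD355N mutant pull-down background, only proteins with at least twofold 3×MBT over mutant signal considered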
T1 sequence (Q96KQ7 2-1210 limits assumed): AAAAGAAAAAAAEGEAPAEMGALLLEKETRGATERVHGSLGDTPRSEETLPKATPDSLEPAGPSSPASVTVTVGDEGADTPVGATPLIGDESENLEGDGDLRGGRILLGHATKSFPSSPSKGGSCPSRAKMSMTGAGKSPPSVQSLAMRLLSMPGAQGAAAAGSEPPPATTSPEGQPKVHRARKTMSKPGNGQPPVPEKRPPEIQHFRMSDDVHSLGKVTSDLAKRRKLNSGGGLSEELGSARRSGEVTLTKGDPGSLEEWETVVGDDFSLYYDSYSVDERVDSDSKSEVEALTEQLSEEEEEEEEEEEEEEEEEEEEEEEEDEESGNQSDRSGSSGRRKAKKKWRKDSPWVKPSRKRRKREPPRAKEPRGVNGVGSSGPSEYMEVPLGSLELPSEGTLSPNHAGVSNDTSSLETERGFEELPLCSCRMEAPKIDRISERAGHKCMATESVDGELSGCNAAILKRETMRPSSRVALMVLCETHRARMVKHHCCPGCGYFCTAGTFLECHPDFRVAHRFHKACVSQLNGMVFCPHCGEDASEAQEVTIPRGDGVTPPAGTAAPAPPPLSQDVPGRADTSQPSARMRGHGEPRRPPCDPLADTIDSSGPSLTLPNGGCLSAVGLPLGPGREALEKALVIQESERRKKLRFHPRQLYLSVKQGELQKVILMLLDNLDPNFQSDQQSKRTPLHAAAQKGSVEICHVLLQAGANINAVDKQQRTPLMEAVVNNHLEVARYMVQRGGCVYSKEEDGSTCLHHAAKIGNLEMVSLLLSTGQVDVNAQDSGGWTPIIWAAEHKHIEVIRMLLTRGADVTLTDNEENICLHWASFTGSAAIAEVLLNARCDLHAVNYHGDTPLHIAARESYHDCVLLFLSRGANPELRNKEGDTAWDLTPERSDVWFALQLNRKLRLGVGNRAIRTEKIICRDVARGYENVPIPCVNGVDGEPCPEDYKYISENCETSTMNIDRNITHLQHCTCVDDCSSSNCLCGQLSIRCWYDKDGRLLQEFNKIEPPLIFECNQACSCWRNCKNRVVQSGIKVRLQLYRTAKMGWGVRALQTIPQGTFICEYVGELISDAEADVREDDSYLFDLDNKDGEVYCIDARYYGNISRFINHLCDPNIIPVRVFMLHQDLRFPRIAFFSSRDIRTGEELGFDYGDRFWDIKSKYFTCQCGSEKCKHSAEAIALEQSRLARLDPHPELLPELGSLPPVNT
T1 sequence (Q9H9B1 2-1298 limits assumed): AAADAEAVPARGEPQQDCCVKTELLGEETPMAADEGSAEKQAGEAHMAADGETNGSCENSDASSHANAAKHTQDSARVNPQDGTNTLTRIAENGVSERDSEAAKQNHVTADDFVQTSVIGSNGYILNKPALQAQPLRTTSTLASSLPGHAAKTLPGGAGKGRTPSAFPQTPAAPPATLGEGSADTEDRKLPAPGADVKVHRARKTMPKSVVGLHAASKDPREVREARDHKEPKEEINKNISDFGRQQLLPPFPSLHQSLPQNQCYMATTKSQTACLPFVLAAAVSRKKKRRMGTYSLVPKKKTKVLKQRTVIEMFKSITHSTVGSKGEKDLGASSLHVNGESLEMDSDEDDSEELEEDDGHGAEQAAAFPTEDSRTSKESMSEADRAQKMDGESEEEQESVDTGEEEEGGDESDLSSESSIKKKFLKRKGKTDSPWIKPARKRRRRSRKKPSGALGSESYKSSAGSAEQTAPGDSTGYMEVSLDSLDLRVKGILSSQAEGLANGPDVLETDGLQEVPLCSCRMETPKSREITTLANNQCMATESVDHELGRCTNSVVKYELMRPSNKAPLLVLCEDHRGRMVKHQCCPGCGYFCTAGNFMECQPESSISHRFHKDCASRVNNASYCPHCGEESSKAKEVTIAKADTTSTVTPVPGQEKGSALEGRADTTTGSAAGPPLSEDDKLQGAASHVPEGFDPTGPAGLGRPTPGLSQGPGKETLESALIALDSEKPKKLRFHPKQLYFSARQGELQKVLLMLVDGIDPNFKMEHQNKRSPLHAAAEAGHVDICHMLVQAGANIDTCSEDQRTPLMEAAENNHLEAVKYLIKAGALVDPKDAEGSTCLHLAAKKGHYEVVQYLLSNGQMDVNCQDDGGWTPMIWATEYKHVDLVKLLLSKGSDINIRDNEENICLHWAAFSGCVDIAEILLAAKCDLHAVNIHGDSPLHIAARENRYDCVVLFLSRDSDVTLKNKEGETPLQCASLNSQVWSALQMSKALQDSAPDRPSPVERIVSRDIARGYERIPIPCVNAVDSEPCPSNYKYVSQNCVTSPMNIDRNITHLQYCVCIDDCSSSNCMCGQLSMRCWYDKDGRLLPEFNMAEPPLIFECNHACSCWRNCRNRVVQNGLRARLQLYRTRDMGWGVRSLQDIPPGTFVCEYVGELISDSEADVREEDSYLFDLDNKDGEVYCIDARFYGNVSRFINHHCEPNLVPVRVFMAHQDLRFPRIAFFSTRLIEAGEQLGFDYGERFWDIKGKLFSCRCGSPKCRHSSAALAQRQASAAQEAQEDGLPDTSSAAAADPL

[1] = SILAC ratio, pull-down 3xMBT vs 3xMBTD355N
[2] = SILAC ratio DMSO/UNC0638 of protein pulled down with 3xMBT
[3] = SILAC ratio 3xMBT vs 3xMBTD355N pull-down, 293T cells, all values in log base 2
[4] = SILAC ratio DMSO relative to UNC0638, pull-down with 3xMBT, all values in log base 2

Relative to UNC0638 UNC Heavy (G9a and GLP; [2]): 0.72 log base 2 | Relative to UNC0638 UNC Light (G9a and GLP; [2]): −0.12 log base 2 | Relative to UNC0638 Average (G9a and GLP): 0.30 log base 2
B1: NTHL1 (protein, UniProt P78549 23-304, looked up)
Endonuclease III-like protein …: GCREEPGPLRRREAAAEARKSHSPVKRPRKAQRLRVAYEGSDSEKGEGAEPLKVPVWEPQDWQQQLVNIRAMRNKKDAPVDHLGTEHCYDSSAPPKVRRYQVLLSLMLSSQTKDQVTAGAMQRLRARGLTVDSILQTDDATLGKLIYPVGFWRSKVKYIKQTSAILQQHYGGDIPASVAELVALPGVGPKMAHLAMAVAWGTVSGIAVDTHVHRIANRLRWTKKATKSPEETRAALEEWLPRELWHEINGLLVGFGQQTCLPVHPRCHACLNQALCPAAQGL
3xMBT/D355N UNC Heavy (3×MBT domain of L3MBTL1; [1]): 0.48 log base 2 | 3xMBT/D355N UNC Light (3×MBT domain of L3MBTL1; [1]): 1.60 log base 2

Relative to UNC0638 UNC Heavy (G9a and GLP; [2]): 0.57 log base 2 | Relative to UNC0638 UNC Light (G9a and GLP; [2]): 0.28 log base 2 | Relative to UNC0638 Average (G9a and GLP): 0.43 log base 2 | Candidate G9a/GLP target (G9a and GLP): ✓
B2: NUDT16L1 (protein, UniProt Q9BRJ7 1-211, looked up)
Tudor-interacting repair …: MSTAAVPELKQISRVEAMRLGPGWSHSCHAMLYAANPGQLFGRIPMRFSVLMQMRFDGLLGFPGGFVDRRFWSLEDGLNRVLGLGLGCLRLTEADYLSSHLTEGPHRVVAHLYARQLTLEQLHAVEISAVHSRDHGLEVLGLVRVPLYTQKDRVGGFPNFLSNAFVSTAKCQLLFALKVLNMMPEEKLVEALAAATEKQKKALEKLLPASS
3xMBT/D355N UNC Heavy (3×MBT domain of L3MBTL1; [1]): 1.84 log base 2 | 3xMBT/D355N UNC Light (3×MBT domain of L3MBTL1; [1]): 1.77 log base 2

Relative to UNC0638 UNC Heavy (G9a and GLP; [2]): 0.29 log base 2 | Relative to UNC0638 UNC Light (G9a and GLP; [2]): 0.54 log base 2 | Relative to UNC0638 Average (G9a and GLP): 0.42 log base 2 | Candidate G9a/GLP target (G9a and GLP): ✓
B3: DDX23 (protein, UniProt Q9BUQ8 1-820, looked up)
Probable ATP-dependent RNA …: MAGELADKKDRDASPSKEERKRSRTPDRERDRDRDRKSSPSKDRKRHRSRDRRRGGSRSRSRSRSKSAERERRHKERERDKERDRNKKDRDRDKDGHRRDKDRKRSSLSPGRGKDFKSRKDRDSKKDEEDEHGDKKPKAQPLSLEELLAKKKAEEEAEAKPKFLSKAEREAEALKRRQQEVEERQRMLEEERKKRKQFQDLGRKMLEDPQERERRERRERMERETNGNEDEEGRQKIREEKDKSKELHAIKERYLGGIKKRRRTRHLNDRKFVFEWDASEDTSIDYNPLYKERHQVQLLGRGFIAGIDLKQQKREQSRFYGDLMEKRRTLEEKEQEEARLRKLRKKEAKQRWDDRHWSQKKLDEMTDRDWRIFREDYSITTKGGKIPNPIRSWKDSSLPPHILEVIDKCGYKEPTPIQRQAIPIGLQNRDIIGVAETGSGKTAAFLIPLLVWITTLPKIDRIEESDQGPYAIILAPTRELAQQIEEETIKFGKPLGIRTVAVIGGISREDQGFRLRMGCEIVIATPGRLIDVLENRYLVLSRCTYVVLDEADRMIDMGFEPDVQKILEHMPVSNQKPDTDEAEDPEKMLANFESGKHKYRQTVMFTATMPPAVERLARSYLRRPAVVYIGSAGKPHERVEQKVFLMSESEKRKKLLAILEQGFDPPIIIFVNQKKGCDVLAKSLEKMGYNACTLHGGKGQEQREFALSNLKAGAKDILVATDVAGRGIDIQDVSMVVNYDMAKNIEDYIHRIGRTGRAGKSGVAITFLTKEDSAVFYELKQAILESPVSSCPPELANHPDAQHKPGTILTKKRREETIFA
3xMBT/D355N UNC Heavy (3×MBT domain of L3MBTL1; [1]): 2.24 log base 2 | 3xMBT/D355N UNC Light (3×MBT domain of L3MBTL1; [1]): 2.27 log base 2

Relative to UNC0638 UNC Heavy (G9a and GLP; [4]): −3.85 log base 2 | Relative to UNC0638 UNC Light (G9a and GLP; [4]): 1.78 log base 2 | Relative to UNC0638 Average (G9a and GLP; all values in log base 2): −1.03 log base 2
B4: CAND1 (protein, UniProt Q86VP6 2-1230, looked up)
Cullin-associated …: ASASYHISNLLEKMTSSDKDFRFMATNDLMTELQKDSIKLDDDSERKVVKMILKLLEDKNGEVQNLAVKCLGPLVSKVKEYQVETIVDTLCTNMLSDKEQLRDISSIGLKTVIGELPPASSGSALAANVCKKITGRLTSAIAKQEDVSVQLEALDIMADMLSRQGGLLVNFHPSILTCLLPQLTSPRLAVRKRTIIALGHLVMSCGNIVFVDLIEHLLSELSKNDSMSTTRTYIQCIAAISRQAGHRIGEYLEKIIPLVVKFCNVDDDELREYCIQAFESFVRRCPKEVYPHVSTIINICLKYLTYDPNYNYDDEDEDENAMDADGGDDDDQGSDDEYSDDDDMSWKVRRAAAKCLDAVVSTRHEMLPEFYKTVSPALISRFKEREENVKADVFHAYLSLLKQTRPVQSWLCDPDAMEQGETPLTMLQSQVPNIVKALHKQMKEKSVKTRQCCFNMLTELVNVLPGALTQHIPVLVPGIIFSLNDKSSSSNLKIDALSCLYVILCNHSPQVFHPHVQALVPPVVACVGDPFYKITSEALLVTQQLVKVIRPLDQPSSFDATPYIKDLFTCTIKRLKAADIDQEVKERAISCMGQIICNLGDNLGSDLPNTLQIFLERLKNEITRLTTVKALTLIAGSPLKIDLRPVLGEGVPILASFLRKNQRALKLGTLSALDILIKNYSDSLTAAMIDAVLDELPPLISESDMHVSQMAISFLTTLAKVYPSSLSKISGSILNELIGLVRSPLLQGGALSAMLDFFQALVVTGTNNLGYMDLLRMLTGPVYSQSTALTHKQSYYSIAKCVAALTRACPKEGPAVVGQFIQDVKNSRSTDSIRLLALLSLGEVGHHIDLSGQLELKSVILEAFSSPSEEVKSAASYALGSISVGNLPEYLPFVLQEITSQPKRQYLLLHSLKEIISSASVVGLKPYVENIWALLLKHCECAEEGTRNVVAECLGKLTLIDPETLLPRLKGYLISGSSYARSSVVTAVKFTISDHPQPIDPLLKNCIGDFLKTLEDPDLNVRRVALVTFNSAAHNKPSLIRDLLDTVLPHLYNETKVRKELIREVEMGPFKHTVDDGLDIRKAAFECMYTLLDSCLDRLDIFEFLNHVEDGLKDHYDIKMLTFLMLVRLSTLCPSAVLQRLDRLVEPLRATCTTKVKANSVKQEFEKQDELKRSAMRAVAALLTIPEAEKSPLMSEFQSQISSNPELAAIFESIQKDSSSTNLESMDTS
3xMBT/D355N UNC Heavy (3×MBT domain of L3MBTL1; [3]): 3.61 log base 2 | 3xMBT/D355N UNC Light (3×MBT domain of L3MBTL1; [3]): 3.86 log base 2
